Results from the NTF2 design screens of Basanta et al. (2020).

Assay: protease stability score; higher = more stable; yeast display proteolysis, trypsin and chymotrypsin;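 also: relative to predicted unfolded state with 0 unfolded-like and 1 meaning tenfold more protease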

Sequence | protease stability score
SEDEKIASEIAEYVERAFRTGNEEEWERYADPHVRTDVNGQDLIGRRTLEEMFHRIDHLHDSRMEIHDVKLVNGRIISDVRLHLDSHYNGVRFEWEHEVRIQVDKINGRWRVKFIEIR | 0.428
DEDEKHMEEWLRLLKHALVTGDFEMILRNLDPHYRNDINGREFHGWEFFDKLMKEIRVKDSHLTHIEIYDGKAISETNVDLHVDGKDVLLDTRVVIDKYNGRWIIRHVSID | 1.23
DEEDKFSREAIELWIRVLETGNEHLLHKLADPHVRVVFNGKESVGMEEFVEVLREIRIHTSRDRHVRLQGDKVDVDSIIDGEVNGVRTKVETQLIATKIDGRWVNQQVNWR | 0.23
SEDEEHARKLVEELLHIMITGDFHRIRELADPHARIVVGDKVFHGREMMFRFSRELRVHDHRLRHEEYINGVVHIEGHVDGEINGRRHRTEVRIHIVVIDGRVKTMEIRWD | 1.35
REEEEEAKRFLDIITRSILTGDEDSLSELFDPNTQLHYGDKRFVGRERINEVVKQWRIEDVNLHDVEVQGEWAILDTRVDGNFNGKKRNLETRIITEKVNGRWILKRVEIE | 1.35
SEDEKHFREALEELHRALETGDWKRLDELLDPNTRLHINGVDLIGREMVSRFYRELVEHLGINHIELRVHHIRIIGDKVEMDSELIIDVGDKHIRIDQKLDAKKVDGRWISHVESHR | 2.05
SEHEKIIVEWTRLLQEILRTGDEEMWLKLLDPHAKTHINGKDIHGMEEAARFWKELHKHMRIEDEEVRETRVVGNKAIYHMERKVNINGRTHEQEVELRVIIVDGQIKKISIHIH | 0.439
DDDDRKNHEIAKWIWELIETGDEDILQHLADPDYRLVLDFDGVHIHRHGMTRIYHTLERVYREFGADHIHIRSITNINGVNIIDGEVQVNGKHYRLVLIFIVVNGRIKEIRVKKR | 1.54
NEDEKILEEAARLLFKALHTGDETTMLRLLDPNVRLHINGRDLIGREEMDRWWQELGLERISVHLDHLETHYIGNKIEIYIRGTVEFNGVRREIDVHNHALKVNGRWELKNVEIRHR | 0.893
SDEEDTLESVYKLLEHIERTGDWRIWKELADPNVRVELHVNGVEITDHGREAVERLMLKFGVDHIHFKDFDHRTYNGVVHIQEDIVLNINGREIRTKREISADKVNGKWVFRSVRMKID | 1.69
SEERERVRKIHEWLVRFLETGDEESFNHLADPNMRLIVWYNGVNIVFIGRESWREFLRLFREEMRLHRIRVHHVDVQGEKVTSDTRNDGEVNGQRTEFETHVEVVLINGRLKLVLLEFK | 2.33
SDVDDMAHKMATLLIDLLETGDWREIRKFADPNVRIEIGDKEYHGMDYHLKHFRDLGWELHLRVERIDVVNGRILIHQEVELRFDGRHDHRKHTLIIEKIDGKWRFNEMIIS | 1.09
SEEEKESEDSMRILEHYFHTGNEESLLKLADPHVRSEINGKIHHGMDLHNEIWKHFVQQFKGARPTSLNFKDVEIQGNKAEFHIELVLTIGNYSIHLEMHIFNEKVDGRWLIRSTYIR | 1.08
SHLEEEAKEAHDVWLHELLTGDEHQINRLLDPHTRVHIGDKDLHGRHELVRKMVETVRRVDHYHLKIKHLRVQGDKIVSTGNYTLHINGKDIHIDTRLILTKIDGVWILEEIRVE | 1.16
SEEEEVMERFVELLIKLLITGDEEVLEHLMDPNVRIQIGDKVYHGREVARDLWRRYHRHWRIHDTEVKHHHVQGEFIEIHISIDGEIDGRREEERIIFFVVKINGRWLLHDIHFN | 2.51
REEDERDHRISELLFDLWVTGDWEIFHHLADPNVKANINGQETHGREKIMRIMMRMIHEFGFKHIQLEDSTVINGRVHQQIKVRVGDKSEEFNIHHHVVDGKIKHIHIEVR | 1.36
HEEERHREEIMERLLTAIKTGDPKITRELIDPHTRIEIGDKNLHGMEIWLKYIHTLFEKFPNLTLRIEDSHAQGEKFIIVIRLRFDGREVNLVLYYTIVNGRIKTIEIEEK | 1.43
DETEEMVREMAHLFLHLWITGDEEIIKHLLDPSVRLHINGVDNHGRENALEVVHRILKELRLRHLHIHEVHIINGVIHNNIRLDIEQGDKRRILEIEVILVVWNGKIKSIEVRLK | 1.51
DETKEYAKEMFEILKESLETGDWKKIRHLADPNVRLHIGEFEHHGWKEFIHFFREFLHHLRLEDVETKHIEVQGDKMILRTTLHLRQGDKSRDLDVIIIYRKIDGRWMLHSVEIR | 1.4
SEEDELAREVSRIFTEASRTGDEERLIRLIDPHAKIQIGDKHFIGREDMEEWTRRLVERVDHLEVFIEDSRLIGNKLDVKGLFIEDYGDKRTVLEVRWILVKINGRWSIHSLHFK | 1.23
SHDELLATRLVEEVWELWLTGDEDRTAELLDPDVRFFFIVGDKTHTFHGRDKIRKLMHDLRNHWRIHHIRIERFRVQGEYSEFDVRSHGRYNGVEEETTVHLSLDVVNGKVKRIIVHIR | 1.6
SEEEEQVKELIKWLIEVWLTGNEEFIRDLADPHVRMHIEQGDKKVDSHGRETLLKDLERYRREIRFEYIEIHDIRIYNGRAEVDGRLFGLINGQRMELNVILIFVVVDGKIREIAVHIR | 0.26
TEEQTHLIRLIEQFVRDEITGNWKSVLKLLDPEVKVILKINGREIHLHGREEITRWVHEWVRHIRVFIEIHHSRAFDGVVEMDTRIIIDIDGVHLSQETRINIYVVDGVLKSMEIHVK | 1.65
SEEEEEARDILKMLFTALDTGNEEYFLNLIDPNVRISVGNYTIVGREQWTEHMRRVKNMQIDDISIKDIKFQGELLRIHGHLVGRFDGQHSHFHVDIIFRKVNGQWHQKEIIIK | 1.99
NELEDRFDYAMKLWIDILRTGDEHQFEEMADPNVRIIDGDKHNVGREILYFLLWKFGFDNFEFRLHDFKIQGEKIHIDGHFRVDGQTHRVHFVVLKIDGRWLVESVERK | 2.01

Sequence | protease stability score
DEEDELSHQIAEEFFRFFSTGNEEKSKELLDPDVRVESEDHHDHGMHKLLHLWNRIDHIHMRSRHVEFDRVGDFLEIRMRGHVILDVNGVRTEIDTELLLVVTKFDGRWLMHEVKFIIR | 0.696
DEDHHEAEEWADLITHFLKTGDEKFLRDLADPNTRFKYGDFHIHGREQLTNFLRHYVERVKGIRSELKDKHVDVQGEKVRVELDLVLRIGDKTIHITIIIINLKVDGKWYVHTLVVEHR | 1.18
DEHEEEVREMHRVWVELLRTGDWRILAEMFDPNVRMHIGDKEHHGREAIEIHIEKFKNVRLEITRVHIQGEYIVIEGVINIDGKTHTLRFHFVLVNGRLKQYDEHSE | 2
SEDEELLRESVRIFREAMRTGDEEFSERMIDPNVRIHIGDKEYIGREWASEWHKRLGIKHSRFRHIEIQGDFMIADVENKVGDKHIQVEYWRHKINGRWIIESIKVH | 1.55
DEHTRLMDRVSKELMHYRRTGDEHSLDHLLDPHVRLDQGDWEKHGMEEYIEFVRRVKNVKLRIHDITVDIVNGVVIVFIDGILHVNGVDITTRIHIYFRKVNGVWLVESLRYEVG | 0.373
DEDTRMNELFVRLFYELLTTGDEEHIHEMFDPHARLDFDGQQYHGREDAVRKMHELSRRLGIKHIEIREFRKVGDWANLHGKIYVNGQEYELHVILHKVDGRWITRDIRIK | 1.3
DTDQTLFEDYAKMYMKDLLTGDFESIEKYADPRVQVHIGDKEIHGREIFVKYLWEHNEQVDHRQFHFKDVDHFDGKIHVHMEMHIDVNGKLINEKLHVIIWKFNGRWIMKSVHHR | 0.78
SEIEKLLIDWLEHMVRAHKTGDWQNLLNMLDPHTRLNINGQHNIGRDKLTHLIREEEDRFGVDNIELHLHLEDIDIQGEKVNMKVQRHVNVNGREYTDEVELIIVKINGRWLLESIHVH | 0.932
TEEEEEMRELTELWLNILHTGDEDRFRELADPRVRLHINGRHNHGREIFMEFFDRSLKILGADHRTIHRIRFIGDKIDIKGREYINGQETRATLHVIIVNGRIKFEEWRFD | 0.989
DEEHKLQEDFLKALIRSILTGDWEFWKRLLDPHVRMNINGVYVHGRDEAANILIKDLERRGMEIKTITIEDRRHYDGVLEVKLRIQTTIDGQEHETSLEFHVKKYDGRWIIEHITVR | 2.19
DEDREWIERFNRILIESLTTGDEHTLKELIDPNARLVINGRDIHGREEFVRLLSEMGVKHFHVHDVKVVGNKAVTRGILYFNGREYDVDVFTRKIDGRWLYESLEVK | 2.02
DDEHEHYRRQTKLVEDLFLTGDWDKIFRLLDPHVRMEINGRQHIGRERVTTEFKQHIEDLGIDHVEIKRSHVQGEKMHLDGVIEFNGRKQSSELIIVIIDGVWHSIVVQLH | 1.09
GELEKLATTIVRLWVRHWYTGDEESSMRLMDPNARIIINGKEMHGRELYVHFLRRVLEHIRPESVDIEEVKIQGDYAHIDITEHRRIGDKEVTFRTEVSIIVINGKVTEVHMEIR | 1.7
SELEEDMRYLLKLILDAFRTGDEHTFARLFDPHVRIEIGDKEFVGREFVLHHAHQLRIKRSHFNVEHFEWQGNKIRMHGILHFHGRFDGQERESYVDIHIVIEKVDGRWLVKSLHIH | 1.63
SEEHKEMKRSLDESAKALTTGDEEHVTKMVDPNVRIIIGDKTLIGMEKWHEFLKEMRVSIHHIIFRDSDIQGDKIRLDVEVDIRVHYNGREESSKIKSKIILLKFNGKWIIHAVEFD | 0.833
DEKQDLWRHLLEQFFRWYQTGDEDLLFKYADPHVRFRQGDKEHHGREEMIRMLREHRHHFGADHFKVETMEIQGDKATFVMHDHVNGVDIEIRVHVVVIDGRIRSFKFERH | 1.34
TEDREEVRRWWKDLLRSLHTGDEEVLRKQIDPNVKLVDEDERSVGMDRFVKFMHFINREIRIERIHIKRLRLIDGQLEADTRMHVNIDGRIEETDVHILAKKVDGKWLLTSVILD | 1.48
SEEDKHLRKMAQDILEWLFTGNWKDFFDNLDPNYRVEWNGKERIGRDLTRRMLETIRREMRLHDIKIHHFTAIDGVIHIDGSEYIHVDGVTTEVKTHIHIVIFNGRIKRIEFHDH | 1.48
DELIEEARRFHEKLVDNLETGNEEEFEREIDPNTRVDFNGVEIHGWKHFSKMFKEIRFHQVRLHDIRAVGNKVDSDEDVDGNYNGVRVRHRIHVVARKVNGRWLMESVIFR | 1.24
NEEFRDAQMAAHEFINVMETGDEHLLSRRLDPNMRVDINGREFHGWEQWVRIFREIRVKSIRYEEIRVQGDKVHLHTRLHVTIGDYEFTTETTIFIDKINGVWYIKEFHMN | 0.253
DEEKKDLERLYELLLRSMFTGDWRALEELMDPNVLLQVNGKELHGWKLMVRVMREIRIEDHEVKHIELQGDKIHMDTRTHGEFDGRTDTTKTHVLAKKVDGQWRLKHYKID | 0.932
SEDEDLFHHVLHVWLNAMETGDFEVFKHLLDPRTKEHQGDKHLIGREDALRKFREEWEKYPNMRVEIRVDDWDIQGNKIRAKVHIIIRQGDKTYSVEIDLIMVKVNGRWFIHSIIIH | 0.966
DEEEEETHEYMRLLVRLFLTGDEEVFDRLADPNRRLKWNGREYHGREQTNRVWRELGVKHRRIEDIKMQGDKVVIEGTVHIGDKTLRTTVSFVIIDGRTKSIEIRDI | 1.46
DERTHHLEQLYRRMYEHWETGDEKFHRELLDPHARVDINGQDVHGMHWIEEEMRMQREHIRIEHVIIKSIEIVDGKIHMNGIILGDINGRRVNVEVRFHVIIINGKARLVEVKIL | 0.025
DHEEEHALRIMQLLLWLDFTGDEETIHHLMDPHVRSVWIVGDKTITRHGRENVLKLFRDLGFKHVKDFRIRDVSAFDGRVDLKGRIDGQYGDKRETWDMDVELNVVDGRLKFFIIRFK | 1.69
